Data on two molecules can be found in WO2010028796A1 (dated 2010).

In test [1] the target is human CD4 (human, UniProt P01730 26-458). As to the kind of experiment: cell-based or functional assay.
For test [2], the target named is human CCR5 (human, UniProt P51681 1-352). As to the kind of experiment: cell-based or functional assay.
Chain of human CCR5 (P51681 whole entry): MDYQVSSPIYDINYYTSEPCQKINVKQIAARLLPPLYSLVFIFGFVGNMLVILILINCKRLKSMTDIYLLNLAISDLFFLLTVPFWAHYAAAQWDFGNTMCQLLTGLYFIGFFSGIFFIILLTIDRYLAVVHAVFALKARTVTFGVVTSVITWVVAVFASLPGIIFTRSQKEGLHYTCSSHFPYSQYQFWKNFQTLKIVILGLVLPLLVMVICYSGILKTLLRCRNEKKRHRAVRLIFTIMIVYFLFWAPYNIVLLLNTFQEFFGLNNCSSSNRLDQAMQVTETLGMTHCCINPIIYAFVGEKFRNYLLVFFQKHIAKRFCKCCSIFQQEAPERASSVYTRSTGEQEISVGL

B1: HNN-1000-1000 (antibody, V domains shown)
VH: QVQLQQSGPEVVKPGASVKMSCKASGYTFTSYVIHWVRQKPGQGLDWIGYINPYNDGTDYDEKFKGKATLTSDTSTSTAYMELSSLRSEDTAVYYCAREKDNYATGAWFAYWGQGTLVTVSS
VL: DIVMTQSPDSLAVSLGERVTMNCKSSQSLLYSTNQKNYLAWYQQKPGQSPKLLIYWASTRESGVPDRFSGSGSGTDFTLTISSVQAEDVAVYYCQQYYSYRTFGGGTKLEIK
For B1, the “IC50, PBMC antiviral assay (HIV-1 NLBal, p24 ELISA)” value in test [1] came out at 0.348 nM.

B2: BNN-1000-1000 (antibody, human IgG1, kappa, L234A L235A, V domains shown)
VH: QVQLQESGPGLVKPSQSLSITCTVSGFPLGAFGVHWVRQSPGKGLEWLGVIWKGGNTDYNAAFKSRLRITKDNSKSQVFFRMNSLQTDDTATYYCAKVNLADAMDYWGQGTTVTVSS
VL: DIQMTQSPASLSASVGETVTITCRASGNAHGYLAWYQQKPGKAPKLLIYNTKTLAEGVPSRFSGSGSGTQFSLKINSAQPEDFGNYYCQHHYDLPRTFGGGTKVEIKR
On to B2, for which, in test [2], the “IC50, PBMC antiviral assay (HIV-1 NLBal, p24 ELISA)” value is 1.08 nM.
